Among the data in paper PMC4355418 are response values, retold here.

Holding throughout (experiment): peptide binding assay on Ni2+ coated plate (absorbance at 405 nm)
For assay [1], the target named is T1, pJMD1 peptide (JMD1 with phosphorylated Ser475).
T1 chain: DTRSSKDSAFTKDNG
The conditions noted are these: chain shown with the change; protein immobilized on a Ni2+ coated plate; triplicate; SUMO control absorbance subtracted; parent: est. 0.29; read off a plot.

Assay [2] has as its target T2, CRK1 hC peptide (helix-C region of the CRK1 kinase domain).
T2 chain: HRRADKDSAFVNELES
The conditions noted are these: chain shown with the change; protein immobilized on a Ni2+ coated plate; triplicate; SUMO control absorbance subtracted; parent: est. 0.39; read off a plot.

Assay [3] deals with T3, JMD1 peptide of the ACR4 juxtamembrane domain.
T3 chain: DTRSSKDSAFTKDNG
The conditions noted are these: chain shown with the change; protein immobilized on a Ni2+ coated plate; triplicate; SUMO control absorbance subtracted; parent: est. 0.14; read off a plot.

B1: SUMO-tagged ACR4 KC (sACR4 KC), ACR4 intracellular domain lacking the JMD, Q9LX29 LLSLL motif replaced with AAAAA (residue numbers not printed) (protein)
chain: FKEESIVGKGSFSCVYKGVLRDGTTVAVKRAIMSSDKQKNSNEFRTELDLLSRLNHAHAAAAAGYCEECGERLLVYEFMAHGSLHNHLHGKNKALKEQLDWVKRVTIAVQAARGIEYLHGYACPPVIHRDIKSSNILIDEEHNARVADFGLSLLGPVDSGSPLAELPAGTLGYLDPEYYRLHYLTTKSDVYSFGVLLLEILSGRKAIDMHYEEGNIVEWAVPLIKAGDINALLDPVLKHPSEIEALKRIVSVACKCVRMRGKDRPSMDKVTTALERALAQLMGNPSSEQPILPTEVVLGSSRMHKKSWRIGSKRSGSENTEFRGGSWITFPSVTSSQRRKSSASEGDVAEEEDEGRKQQEALRSLEEEIGPASPGQSLFLHHNF
Take B1: the response in assay [1] turned out to be 0.17 A405; in assay [2], 0.3 A405; in assay [3], 0.042 A405.
